Results: the supplement of paper PMC10567573

B1: KLHL14 (parent)
chain: NETGYLSSVECYNLETNEWRYVSS
B2: ANKRD9 (parent)
chain: VGAAGSARQELLGDRPRWQRLLGE

Variants of: B1
Assay: protein stability index of a GFP-peptide fusion (GPS, HEK-293T) (PSI 1-6); higher = more stable
Conditions: c terminus: a fixed tail appended
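Further: lentivirally expressed fusions sorted by FACS into six bins by GFP to DsRed ratio, PSI derived from sequencing read proportions per bin multiplied by bin number.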

In order of falling protein stability index:
1. NETGTLSSVECYNLETNEWRYVSS  4.72
2. NETGDLSSVECYNLETNEWRYVSS  4.57
3. NETGYWSSVECYNLETNEWRYVSS  4.46
4. NETGYESSVECYNLETNEWRYVSS  4.29
5. NETGELSSVECYNLETNEWRYVSS  4.24
6. NETGQLSSVECYNLETNEWRYVSS  4.24
7. NETGALSSVECYNLETNEWRYVSS  4.24
8. NETGYHSSVECYNLETNEWRYVSS  4.23
9. NETGNLSSVECYNLETNEWRYVSS  4.2
10. NETGYPSSVECYNLETNEWRYVSS  4.19
11. NETGHLSSVECYNLETNEWRYVSS  4.18
12. NETGSLSSVECYNLETNEWRYVSS  4.16
13. NEDGYLSSVECYNLETNEWRYVSS  4.12
14. NETGYLESVECYNLETNEWRYVSS  4.08
15. NETGGLSSVECYNLETNEWRYVSS  4.01
16. NETGPLSSVECYNLETNEWRYVSS  4
17. NETGILSSVECYNLETNEWRYVSS  4
18. NETDYLSSVECYNLETNEWRYVSS  4
19. NETGYTSSVECYNLETNEWRYVSS  3.97
20. EETGYLSSVECYNLETNEWRYVSS  3.95
21. NETPYLSSVECYNLETNEWRYVSS  3.92
22. NETGCLSSVECYNLETNEWRYVSS  3.9
23. NETGYKSSVECYNLETNEWRYVSS  3.89
24. NETGYLDSVECYNLETNEWRYVSS  3.89
25. NEPGYLSSVECYNLETNEWRYVSS  3.85
26. NETGYRSSVECYNLETNEWRYVSS  3.82
27. NETNYLSSVECYNLETNEWRYVSS  3.82
28. NETGVLSSVECYNLETNEWRYVSS  3.8
29. NENGYLSSVECYNLETNEWRYVSS  3.78
30. NETGYDSSVECYNLETNEWRYVSS  3.78
31. NETQYLSSVECYNLETNEWRYVSS  3.77
32. NETAYLSSVECYNLETNEWRYVSS  3.75
33. NETGFLSSVECYNLETNEWRYVSS  3.71
34. NETGYQSSVECYNLETNEWRYVSS  3.69
35. SETGYLSSVECYNLETNEWRYVSS  3.69
36. NWTGYLSSVECYNLETNEWRYVSS  3.64
37. NETGMLSSVECYNLETNEWRYVSS  3.64
38. NETGYSSSVECYNLETNEWRYVSS  3.63
39. NETGYASSVECYNLETNEWRYVSS  3.63
40. NETGYGSSVECYNLETNEWRYVSS  3.62
41. NETEYLSSVECYNLETNEWRYVSS  3.56
42. NETKYLSSVECYNLETNEWRYVSS  3.56
43. KETGYLSSVECYNLETNEWRYVSS  3.55
44. NEEGYLSSVECYNLETNEWRYVSS  3.53
45. NDTGYLSSVECYNLETNEWRYVSS  3.52
46. PETGYLSSVECYNLETNEWRYVSS  3.49
47. NETGYLGSVECYNLETNEWRYVSS  3.47
48. NETGLLSSVECYNLETNEWRYVSS  3.46
49. NETGYMSSVECYNLETNEWRYVSS  3.45
50. HETGYLSSVECYNLETNEWRYVSS  3.44
51. NETGYLASVECYNLETNEWRYVSS  3.42
52. NETGKLSSVECYNLETNEWRYVSS  3.41
53. NEQGYLSSVECYNLETNEWRYVSS  3.4
54. NESGYLSSVECYNLETNEWRYVSS  3.4
55. NEIGYLSSVECYNLETNEWRYVSS  3.4
56. NETGYVSSVECYNLETNEWRYVSS  3.39
57. QETGYLSSVECYNLETNEWRYVSS  3.31
58. NEAGYLSSVECYNLETNEWRYVSS  3.3
59. VETGYLSSVECYNLETNEWRYVSS  3.3
60. NETGYISSVECYNLETNEWRYVSS  3.24
61. DETGYLSSVECYNLETNEWRYVSS  3.23
62. NETSYLSSVECYNLETNEWRYVSS  3.22
63. NEYGYLSSVECYNLETNEWRYVSS  3.21
64. NETGYCSSVECYNLETNEWRYVSS  3.21
65. NETGRLSSVECYNLETNEWRYVSS  3.2
66. NETHYLSSVECYNLETNEWRYVSS  3.17
67. NEHGYLSSVECYNLETNEWRYVSS  3.12
68. NELGYLSSVECYNLETNEWRYVSS  3.08
69. NETGYNSSVECYNLETNEWRYVSS  3.08
70. AETGYLSSVECYNLETNEWRYVSS  3.05
71. LETGYLSSVECYNLETNEWRYVSS  3.04
72. NEGGYLSSVECYNLETNEWRYVSS  3.01
73. NERGYLSSVECYNLETNEWRYVSS  2.96
74. NEVGYLSSVECYNLETNEWRYVSS  2.92
75. NETGYFSSVECYNLETNEWRYVSS  2.87
76. NETGYYSSVECYNLETNEWRYVSS  2.86
77. TETGYLSSVECYNLETNEWRYVSS  2.83
78. NECGYLSSVECYNLETNEWRYVSS  2.8
79. NETGYLHSVECYNLETNEWRYVSS  2.8
80. NETTYLSSVECYNLETNEWRYVSS  2.8
81. YETGYLSSVECYNLETNEWRYVSS  2.79
82. NEMGYLSSVECYNLETNEWRYVSS  2.78
83. NSTGYLSSVECYNLETNEWRYVSS  2.78
84. NNTGYLSSVECYNLETNEWRYVSS  2.78
85. NETMYLSSVECYNLETNEWRYVSS  2.77
86. NPTGYLSSVECYNLETNEWRYVSS  2.72
87. GETGYLSSVECYNLETNEWRYVSS  2.71
88. NCTGYLSSVECYNLETNEWRYVSS  2.7
89. NKTGYLSSVECYNLETNEWRYVSS  2.69
90. NATGYLSSVECYNLETNEWRYVSS  2.68
91. NEKGYLSSVECYNLETNEWRYVSS  2.67
92. NTTGYLSSVECYNLETNEWRYVSS  2.67
93. NETLYLSSVECYNLETNEWRYVSS  2.67
94. NETRYLSSVECYNLETNEWRYVSS  2.64
95. FETGYLSSVECYNLETNEWRYVSS  2.63
96. NETVYLSSVECYNLETNEWRYVSS  2.58
97. NMTGYLSSVECYNLETNEWRYVSS  2.55
98. RETGYLSSVECYNLETNEWRYVSS  2.55
99. NEWGYLSSVECYNLETNEWRYVSS  2.53
100. NETGWLSSVECYNLETNEWRYVSS  2.52
101. NETGYLCSVECYNLETNEWRYVSS  2.52
102. NVTGYLSSVECYNLETNEWRYVSS  2.51
103. NRTGYLSSVECYNLETNEWRYVSS  2.49
104. NETYYLSSVECYNLETNEWRYVSS  2.46
105. NEFGYLSSVECYNLETNEWRYVSS  2.45
106. NGTGYLSSVECYNLETNEWRYVSS  2.43
107. IETGYLSSVECYNLETNEWRYVSS  2.43
108. CETGYLSSVECYNLETNEWRYVSS  2.41
109. NETFYLSSVECYNLETNEWRYVSS  2.39
110. NITGYLSSVECYNLETNEWRYVSS  2.37
111. NQTGYLSSVECYNLETNEWRYVSS  2.35
112. NETIYLSSVECYNLETNEWRYVSS  2.34
113. METGYLSSVECYNLETNEWRYVSS  2.18
114. NLTGYLSSVECYNLETNEWRYVSS  2.09
115. NHTGYLSSVECYNLETNEWRYVSS  2.02
116. NETCYLSSVECYNLETNEWRYVSS  1.98
117. NYTGYLSSVECYNLETNEWRYVSS  1.88
118. NFTGYLSSVECYNLETNEWRYVSS  1.72
119. WETGYLSSVECYNLETNEWRYVSS  1.71
120. NETWYLSSVECYNLETNEWRYVSS  1.68
121. NETGYLFSVECYNLETNEWRYVSS  1.64

Variants of: B2
Assay: as above
Conditions: c terminus: a fixed tail appended

In order of falling protein stability index:
1. VGAAGSARQELLGDRPRWQRSLGE  4.52
2. VGAAGSARQELLGDRPRWQRLLSE  4.39
3. VGAAGSARQELLGDRPRWQRLDGE  4.11
4. VGAAGSARQELLGDRPRWQRKLGE  4
5. VGAAGSARQELLGDRPRWQRLSGE  3.96
6. VGAAGSARQELLGDRPRWQRLEGE  3.87
7. VGAAGSARQELLGDRPRWQRLLDE  3.84
8. VGAAGSARQELLGDRPRWQRLPGE  3.77
9. VGAAGSARQELLGDRPRWQRNLGE  3.71
10. VGAAGSARQELLGDRPRWQRLLGK  3.7
11. VGAAGSARQELLGDRPRWQRLTGE  3.69
12. VGAAGSARQELLGDRPRWQRLVGE  3.68
13. VGAAGSARQELLGDRPRWQRLRGE  3.67
14. VGAAGSARQELLGDRPRWQRVLGE  3.67
15. VGAAGSARQELLGDRPRWQRLQGE  3.64
16. VGAAGSARQELLGDRPRWQRLLLE  3.58
17. VGAAGSARQELLGDRPRWQRLKGE  3.57
18. VGAAGSARQELLGDRPRWQRLHGE  3.53
19. VGAAGSARQELLGDRPRWQRLAGE  3.43
20. VGAAGSARQELLGDRPRWQRLLQE  3.4
21. VGAAGSARQELLGDRPRWQRLLEE  3.39
22. VGAAGSARQELLGDRPRWQRLCGE  3.35
23. VGAAGSARQELLGDRPRWQRLLGM  3.34
24. VGAAGSARQELLGDRPRWQRQLGE  3.32
25. VGAAGSARQELLGDRPRWQRLGGE  3.31
26. VGAAGSARQELLGDRPRWQRLLGR  3.26
27. VGAAGSARQELLGDRPRWQRLLME  3.23
28. VGAAGSARQELLGDRPRWQRWLGE  3.23
29. VGAAGSARQELLGDRPRWQRLLPE  3.22
30. VGAAGSARQELLGDRPRWQRLLGG  3.2
31. VGAAGSARQELLGDRPRWQRLLKE  3.19
32. VGAAGSARQELLGDRPRWQRLIGE  3.18
33. VGAAGSARQELLGDRPRWQRLLGN  3.17
34. VGAAGSARQELLGDRPRWQRLNGE  3.13
35. VGAAGSARQELLGDRPRWQRTLGE  3.13
36. VGAAGSARQELLGDRPRWQRLLGD  3.13
37. VGAAGSARQELLGDRPRWQRLLNE  3.12
38. VGAAGSARQELLGDRPRWQRRLGE  3.11
39. VGAAGSARQELLGDRPRWQRLLAE  3.1
40. VGAAGSARQELLGDRPRWQRMLGE  3.03
41. VGAAGSARQELLGDRPRWQRLLGT  3
42. VGAAGSARQELLGDRPRWQRLLGA  3
43. VGAAGSARQELLGDRPRWQRLLRE  2.99
44. VGAAGSARQELLGDRPRWQRLLTE  2.98
45. VGAAGSARQELLGDRPRWQRLWGE  2.96
46. VGAAGSARQELLGDRPRWQRLLGH  2.96
47. VGAAGSARQELLGDRPRWQRLFGE  2.93
48. VGAAGSARQELLGDRPRWQRLLYE  2.88
49. VGAAGSARQELLGDRPRWQRLLCE  2.88
50. VGAAGSARQELLGDRPRWQRLLIE  2.88
51. VGAAGSARQELLGDRPRWQRLLVE  2.78
52. VGAAGSARQELLGDRPRWQRLLGS  2.77
53. VGAAGSARQELLGDRPRWQRLLGP  2.75
54. VGAAGSARQELLGDRPRWQRLLFE  2.71
55. VGAAGSARQELLGDRPRWQRLLGF  2.68
56. VGAAGSARQELLGDRPRWQRLLWE  2.64
57. VGAAGSARQELLGDRPRWQRLLGQ  2.63
58. VGAAGSARQELLGDRPRWQRLLHE  2.61
59. VGAAGSARQELLGDRPRWQRLLGV  2.45
60. VGAAGSARQELLGDRPRWQRLYGE  2.42
61. VGAAGSARQELLGDRPRWQRLLGL  2.38
62. VGAAGSARQELLGDRPRWQRLLGY  2.37
63. VGAAGSARQELLGDRPRWQRLLGW  2.33
64. VGAAGSARQELLGDRPRWQRLMGE  2.28
65. VGAAGSARQELLGDRPRWQRYLGE  2.28
66. VGAAGSARQELLGDRPRWQRLLGI  2.27
67. VGAAGSARQELLGDRPRWQRLLGC  2.1
